# Data as given in publication PMC3522794 (Nature chemical biology, 2012).
# How the values were obtained:
# [1] = molecular target: SNAP-tag-polyproline (PP) peptide fusion (…); experiment: pull-down
# HCK^Y527F = HCK^Y527F (Homo sapiens, UniProt P08631, Y522F); experiment: Pull-down assay to determine SH3 domain accessibility; assay type: binding; settings: inhibitor 5 µM (saturating), kinase 100 nM; mean ± SEM, n=3
"Percent kinase eluted (retained on PP ligand beads), HCK^Y527F (HCK^Y527F)",Compound,percent of loaded kinase retained on the beads [1]
,"HCK^Y527F (HCK residues 84–531, Y527F, SRC residue numbering) (enzyme)",27%
27%,"Cc1nc(Nc2ncc(C(=O)Nc3c(C)cccc3Cl)s2)cc(N2CCN(CCO)CC2)n1 [Dasatinib, dasatinib]",
